# Reference: the nanobody polyreactivity screen of Harvey et al. (2022)
# Assay: yeast display, Sf9 membrane polyspecificity reagent, FACS + sequencing; frameworks hold sequencing errors
# Outline: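 In a synthetic yeast display library (Saccharomyces cerevisiae BJ5465), nanobody expression was induced with galactose for 36–48 hours. FACS gates were set low and high (top ~1%) using anti-HA fluorescence for expression and streptavidin fluorescence for binding of the Sf9 membrane reagent. Each polyreactivity label is drawn from the gate of origin.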
row,Sequence,polyreactivity (PSR sort gate)
1,QVQLVESGGGLVQAGGSLRLSCAASGNIFPYNAMGWYRQAPGKERELVASISSGGSTNYADSVKGRFTISRDNAKNTVYLQMNSLKPEDTAVYYCAKDQSVLSRGGTYDYWGQGTQVTVSS,low polyreactivity
2,QVQLVESGGGLVQAGGSLRLSCAASGNIFQAYAMGWSRQAPGKERELVATIRTYADYVKGRFTISRDNAKNTVYLQMNSLKPEDTAVYYCAAQNAMYYDSYSGYDSWGQGTQVTVSS,low polyreactivity
3,QVQLVESGGGLVQAGGSLRLSCAASGNIFRINAMGWYRQAPGKERELVAAISRSVGSTYADSVKGRFTISRDNAKNTVYLQMNSLKPEDTAVYYCNARGRTQQRWVDYWGQGTQVTVSS,high polyreactivity
4,QVQLVESGGGLVQAGGSLRLSCAASGNIFRPYTMGWYRQAPGKERELVARISSGGSTNYADSVKGRFTISRDNGKYTDYFQLNSLKPEVTAVYYWSKRYGTVLSRYGYLGQGTQVTVSS,high polyreactivity
5,QVQLVESGGGLVQAGGSLRLSCAASGNIFSDNTMGWYRQAPGKERELVAVITSGTSTSYADSVKGRFTISRDNAKNTEYFQMNSLKPEDTAVSYAARTGQYKTYGEYDYWGQGTQVTVSS,low polyreactivity
6,QVQLVESGGGLVQAGGSLRLSCAASGNIFSFYTMGWYRQAPGKERELVAAISWSGTSTYYADSVKGRFTISRDNAKNTVYLQMNSLKPEDTAVYYCAAVRRISRYDYWGQGTQVTVSS,high polyreactivity
7,QVQLVESGGGLVQAGGSLRLSCAASGNIFSINAMGWYRQAPGKERELVAAISWSGGSTYYADSVKGRFTISRDNAKNTVYLQMNSLKPEDTAVYYCAADVYYLGYYEYYYWGQGTQVTVSS,high polyreactivity
8,QVQLVESGGGLVQAGGSLRLSCAASGNIFSTYAMGWDRQAPGKERELVAAISSRGTSTYYADSVKGRFTISRDNAKNTVYLQMNSLKPEDTAVYYCNAVIALQLDYWGQGTQVTVSS,high polyreactivity
9,QVQLVESGGGLVQAGGSLRLSCAASGNIFSVYAMVWYRPAPGKERELVAAISSSGGRTYYADSVKGRFTISRDNAKNTVYLQMNSLKPEDTAVYYCAARSYTGQFGYWGQGTQVTVSS,high polyreactivity
10,QVQLVESGGGLVQAGGSLRLSCAASGNIFSYNAMGWYRQAPGKERELVAGISTAGTTSYADSVKGRFTISRDNAKNTVYLQLNSLKPEDTAVYYCAKRRYYWTNLHYFLGYDYWGQGTQVTVSS,low polyreactivity
11,QVQLVESGGGLVQAGGSLRLSCAASGNIFTTYAMGWYRQAPGKERELVAAISRTGGRTSYADSVKGRFTISRDNAKNTVYLQMNSLKPEDTAVYYCAAVPTVRPSAPRARILSDYWGQGTQVTVSS,high polyreactivity
12,QVQLVESGGGLVQAGGSLRLSCAASGNIFVAYPMGWYRKATGKERELVAVISNGGRTYYADSVKGRFTISRDNAKNTVYLQMNSLKPEDTAVYYCATVAHASYGWHNYWGQGTQVTVSS,high polyreactivity
13,QVQLVESGGGLVQAGGSLRLSCAASGNIFVPNAMGWYRQAPGKERGLVAAIRRGGSTNYADSVKGRFTISRDNAKNNVYLQMNSLKPEDTGVYYCARSRVSFTDLEGYYWGQGTQVTVSS,low polyreactivity
14,QVQLVESGGGLVQAGGSLRLSCAASGNIFVRYAMGWYRQAPGKERELVAAISSSGGRTYYADSVKGRFTISRDNAKNTVYLQMNSLKPEDTAVYYCADAQGNAHRDYWGQGTQVTVSS,high polyreactivity
15,QVQLVESGGGLVQAGGSLRLSCAASGNIFVYYAMGWYRQAPGKERELVASITTSGGSTYYADSVKGRFTISRDNAKNTVYLQMNSLKPEDTAVYYCAALYYYWMDYWGQGTQVTVSS,low polyreactivity
16,QVQLVESGGGLVQAGGSLRLSCAASGNIFWAYAMGWYRQAPGKERELVAAISGRSGSTYYADSVKGRFTISRDNAKNTVYLQMNSLKPEDTAVYYCNARPRYTSGGYDYWGQGTQVTVSS,low polyreactivity
17,QVQLVESGGGLVQAGGSLRLSCAASGNIFYGYAMGWYRQAPGKERELVARINWSGSRTYYADSVKGRFTISRDNAKNSVYLQMNSLKPEDTAVYYCNTSTSRVPGNGDYWGQGTQVTVSS,high polyreactivity
18,QVQLVESGGGLVQAGGSLRLSCAASGNIFYKYDMGWYRQAPGKERELVATISSDANTKYADSLKGRFTISRDNAKNTVYLQMNSLKPEDTPVYYCNVKDPVVRGALRDPTEYDSWGQGTQVTVSS,low polyreactivity
19,QVQLVESGGGLVQAGGSLRLSCAASGNIFYLNTMGWYRQAPGKERELVASITRSTGSTYYADSVKGRFTISRDNAKNTVYLQMNSLKPEDTAVYYCAADWSLNKTPRLKGYTFRDDYWGQGTQVTVTS,low polyreactivity
20,QVQLVESGGGLVQAGGSLRLSCAASGNIFYNVMGWYRQAPGKVRELVAVISSGDSTYYADSVKGRFTISRDNAKNTVYLQMNSLIPEDTAVYYCNAQWITSAYLLYSYDYWWGYDYWGQGTQVTVSS,high polyreactivity
21,QVQLVESGGGLVQAGGSLRLSCAASGNIFYRNAMGWYRQAPGKERELVAGITTSGDSTYYADSVKGRFTISRDNAKNTVYLQMNSLKPEDTAVYYCAASSHRYKYSSSYYYWGQGTQVTVSS,high polyreactivity
22,QVQLVESGGGLVQAGGSLRLSCAASGNIFYRYAMGWYRQAPGKERELVAAISGNSGNTYYADSVKGRFTISRDNAKNTVYLQMNSLKPEDTAVYYCAVRRKSFRQTSYNYWGQGTQVTVSS,high polyreactivity

row,Sequence,polyreactivity (PSR sort gate)
1,QVQLVESGGGLVQAGGSLRLSCAASGNIFYTYAMGWYRQAPGKERELVAAITWSGGSTYYADSVKGRFTISRDNAKNTVYLQMNSLKPEDTAVYYCAAESLGYYYSGGYYSIYDHWGQGTQVTVSS,high polyreactivity
2,QVQLVESGGGLVQAGGSLRLSCAASGNIFYYNAMGGNRQAPGKERELVAAITTGGSTNYADSVKGRFTISRDNAKNTVYLQMNSLTPEDTAVYDCAADFIRYINRLLYDYWGQGTQVTVSS,low polyreactivity
3,QVQLVESGGGLVQAGGSLRLSCAASGNIFYYYAMGWYRQAPGKERELVAAISNGITYYADSVKGRFTISRDNAKNTVYLQMNSLKPEDTAVYYCAVDSDGNVRAVSGESLYDYWGQGTQVTVSS,low polyreactivity
4,QVQLVESGGGLVQAGGSLRLSCAASGNIFYYYAMGWYRQAPGKERELVAAISWRGGITYYANSVKGRFTISRDNAKNTVYLQMNSLKPEDNAVYYCNAVQPGYPNGFAVRYNYWGQGTQVTVSS,low polyreactivity
5,QVQLVESGGGLVQAGGSLRLSCAASGNIFYYYAMGWYRQAPGKERELVATISKGGGSTNYADSVKGRFTISRDNAKNTVYLQMNSLKPEDTAVYYCNASYVSRRYHFDYWGQGTQVTVSS,high polyreactivity
6,QVQLVESGGGLVQAGGSLRLSCAASGNILFYNAMGWYRQAPGKERELVAAISRSAGSTYYADSVKGRFTISRDNAKNTVYLQMNSLKPEDTAVYYCAAQYFRRSVYWGQGTQVTVSS,high polyreactivity
7,QVQLVESGGGLVQAGGSLRLSCAASGNILIGNVMGWYRQAPGKERELVAAITSGGDTYYADSVKGRFTISRDNAKNTVNLQMNSLKPEDTAVYYCAADRPGQPKYEYWGQGTQVTVSS,low polyreactivity
8,QVQLVESGGGLVQAGGSLRLSCAASGNISYTYVMGWSRQAPGKHRELVAAITWSTGSTYYADSVKGRFTISRDNAKNTVYLQMNSLKPEDTAVYYCAVDGGEFSSYGYWGQGTQVTVSS,low polyreactivity
9,QVQLVESGGGLVQAGGSLRLSCAASGNIYSWYAMGWYRQAPGKERELVAVISRSGGSTYYADSVKGRFTISRDNAKNTVYLQMNSLKPEDTAVYYCAARAYRTPYSIQFDYWGQGTQVTVSS,high polyreactivity
10,QVQLVESGGGLVQAGGSLRLSCAASGNTFAQNTMGWYRQAPGKEREFVAGITFSGTGTYYADSVKGRFTISRDNAKNTVYLQMNSLKPEDTAVYYCAAESVYTWYYQDDDDYWGQGTQVTVSS,low polyreactivity
11,QVQLVESGGGLVQAGGSLRLSCAASGNTFCQYAMGWYRQAPGKERELVAAITRSTGSTYYADSVNGRFTISRDNAKNTVYLQMISLKPEDTAVYYCAADFYRHYFRVDSWGQGTQVTVSS,low polyreactivity
12,QVQLVESGGGLVQAGGSLRLSCAASGNTFDGNAMGWYRQAPGQERELVAAINYSGASTSYADSVKGRFTISRDNAKNTVYLQMNSLKREDTAVYYCAADYPPLYRKYDYWGHGTQVTVSS,low polyreactivity
13,QVQLVESGGGLVQAGGSLRLSCAASGNTFEYYAMGWYRQAPGKERELVAAITSGGSTNYADSVKGRFTISRDNAKNTVYYQMNSLKPEDTAVYYCAADQWGYEYDYWGQGTQVTVSS,low polyreactivity
14,QVQLVESGGGLVQAGGSLRLSCAASGNTFEYYVMGWYRQAPGKERELVAAITWSTGSTYYADSVKGRFTISRDNAKNTVYLQMNSLKPEDTAVYYCAALYYFIFGRPTRFDYWGQGTQVTVSS,low polyreactivity
15,QVQLVESGGGLVQAGGSLRLSCAASGNTFGLYAMGWYRQAPGKEREFVADITTDGGTTYYADSVKGRFTISRDNAKNTVYLQMNSLKPEDTAVYYCAKLGTFGQHQYDYWGQGTQVTVSS,low polyreactivity
16,QVQLVESGGGLVQAGGSLRLSCAASGNTFGRYAMGWYRQAPGKERELVASIRGSSVRTFYADSVKGRFTISRDNAKNTVYLQMNSLKPEDTAVYYCAKRGYAYPSSYDSWGQGTQVTVSS,high polyreactivity
17,QVQLVESGGGLVQAGGSLRLSCAASGNTFGYYAMGWYRQAPGKERELVAAITWNGDRTYYADSVKGRFTISRDNAKNTVYLQMNSLKPEDTAVYYCNKVNPYRHGYWGQGTQVTVSS,high polyreactivity
18,QVQLVESGGGLVQAGGSLRLSCAASGNTFHPYAMGWYRQAPGKERALVAAITKSGGSTYYADSVKGRFTISRDNAKNTVYLQMNSLKPEDTAVYYCATDGYEYTDYGSSGYDYWGQGTQVTVSS,low polyreactivity
19,QVQLVESGGGLVQAGGSLRLSCAASGNTFIEYAMGWYRQAPGKERELVAAINWNGGSTYYADSVKGRFTISRDNAKNTVYLQMNSLKPEDTAVYYCYADYPQYWDYRTSDYTYGTYNYWGQGTQVTVSS,low polyreactivity
20,QVQLVESGGGLVQAGGSLRLSCAASGNTFIGNAMGWYRQAPGKERELVAAISWSTDSTYYADSVKGRFTISRDNAKNSVYLQMNSLKPEDTAINYCAADYSHLPIAWYYYWGQGTQVTVSS,low polyreactivity
21,QVQLVESGGGLVQAGGSLRLSCAASGNTFIYYGMGWYRQAPGKERELVAAITWSGGSTYYADSVKGRFTISRDNAKNTVYLQMNSLKPEETAVYYCAKFTHNYYYWGQGTQVTVSS,high polyreactivity
